PMC10704371

Biological target: T1, N-terminal DNA-binding domain (2-241) of S. pombe Fep1, 6xHis-tagged (S. pombe) (UniProt Q10134)
T1 sequence: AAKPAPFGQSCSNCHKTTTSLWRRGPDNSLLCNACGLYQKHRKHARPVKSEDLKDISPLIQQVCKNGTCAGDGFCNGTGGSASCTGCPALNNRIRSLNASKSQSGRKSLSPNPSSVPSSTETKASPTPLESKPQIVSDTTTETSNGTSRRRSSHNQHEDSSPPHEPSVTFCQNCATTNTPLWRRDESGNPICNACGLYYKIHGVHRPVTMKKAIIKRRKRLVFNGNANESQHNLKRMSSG

Kex of [2Fe-2S] cluster transfer from [2Fe-2S],Zn-Fep1-DBD to apo-Grx4 (CD-monitored titration, 5 mM GSH): 5.3
Kex of [2Fe-2S] cluster transfer from [2Fe-2S],Zn-Fep1-DBD to apo-Grx4 added as a 1:1 mixture with apo-Fra2 (CD-monitored titration, 5 mM GSH): 36.1
B1: Schizosaccharomyces pombe monothiol glutaredoxin Grx4, full length, 6xHis-tagged (natural protein)
chain: MSVEITFVEQFQEILQNGKEQIILLNFYAPWAAPCKQMNQVFDQFAKDTKNAVFLKIEAEKFSDIAESFDVNAVPLFVLIHGAKVLARISGANPQKLKAAIDEYIQPLISQISSTNASVETQVNSVQTTNTTSNTSKAPNGLDSELNERLSTLTNAHNVMLFLKGTPSEPACGFSRKLVGLLREQNVQYGFFNILADDSVRQGLKVFSDWPTFPQLYIKGEFVGGLDIVSEMIENGELQEMLPN
